We go through 1 molecule from article PMC9675756, “Structure of the catalytically active APOBEC3G bound to a DNA oligonucleotide inhibitor reveals tetrahedral geometry of the transition state”.

For this data set, the target named is A3G-CTD2* (catalytically inactive), MST construct (human, UniProt Q9HC16 191-384, E259A). Put plainly: MST; 23 C; MST: 20 mM Bis-Tris pH 6.5, 100 mM NaCl, 1 mM DTT, 0.002% Tween 20, 50 nM protein, RED-tris-NTA dye, 23 C; NMR inhibition: 50 mM NaPO4 pH 6.5, 100 mM NaCl, 0.002% Tween 20, 1 mM DTT, 10 µM ZnCl2, 25 C. Particulars: protein: recombinant; tags: His (pET-28a); single strand.
Chain of A3G-CTD2* (catalytically inactive), MST construct (Q9HC16 191-384 E259A): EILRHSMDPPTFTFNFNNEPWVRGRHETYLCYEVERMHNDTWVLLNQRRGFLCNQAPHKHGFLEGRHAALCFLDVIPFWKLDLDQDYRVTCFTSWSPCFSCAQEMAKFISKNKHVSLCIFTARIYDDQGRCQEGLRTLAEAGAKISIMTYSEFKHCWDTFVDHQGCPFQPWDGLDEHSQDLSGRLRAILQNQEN

Broadly, the Kd is a measure of binding affinity in units of concentration. As to AATCCCAAA (ssDNA) [5'-AATCCCAAA (substrate)], the Kd is 5.8 ± 0.8 µM.
